Results as given in article PMC11321319, “Shy is a proteobacterial steroid hydratase which catalyzes steroid side chain degradation without requiring a catalytically inert partner domain” (The Journal of Biological Chemistry, 2024).

Key:
[1] = test system: T1, C[C@H](/C=C/C(=O)SCCNC(=O)CCNC(=O)[C@H](O)C(C)(C)COP(=O)(O)OP(=O)(O)OC[C@H]1O[C@@H](n2cnc3c(N)ncnc32)[C@H](O)[C@@H]1OP(=O)(O)O)[C@H]1CC[C@H]2[C@@H]3[C@H](O)C[C@@H]4C[C@H](O)CC[C@]4(C)[C@H]3C[C@H](O)[C@]12C; assay: purified protein; type: biochemical, Comamonas testosteroni; conditions: 100 mM sodium Hepes pH 7.5, 25 °C
T1 construct: C-terminal MaoC domain only (DUF35 removed), His-tagged (pET28a NdeI/HindIII), from E. coli BL21 LOBSTR; homodimer

[2] = test system: T2, C/C=C/C(=O)SCCNC(=O)CCNC(=O)[C@H](O)C(C)(C)COP(=O)(O)OP(=O)(O)OC[C@H]1O[C@@H](n2cnc3c(N)ncnc32)[C@H](O)[C@@H]1OP(=O)(O)O; assay: purified protein; type: biochemical, Comamonas testosteroni; conditions: 100 mM sodium Hepes pH 7.5, 25 °C
T2 construct: C-terminal MaoC domain only (DUF35 removed), His-tagged (pET28a NdeI/HindIII), from E. coli BL21 LOBSTR; homodimer

[3] = substrate: C[C@H](C(O)CC(=O)SCCNC(=O)CCNC(=O)[C@H](O)C(C)(C)COP(=O)(O)OP(=O)(O)OC[C@H]1O[C@@H](n2cnc3c(N)ncnc32)[C@H](O)[C@@H]1OP(=O)(O)O)[C@H]1CC[C@H]2[C@@H]3[C@H](O)C[C@@H]4C[C@H](O)CC[C@]4(C)[C@H]3C[C@H](O)[C@]12C; assay: purified protein; type: biochemical, Comamonas testosteroni; conditions: 100 mM sodium Hepes pH 7.5, 25 °C, 1 mM NAD+, 7 nM Sad (coupling enzyme)
[4] = substrate: C/C=C/C(=O)SCCNC(=O)CCNC(=O)[C@H](O)C(C)(C)COP(=O)(O)OP(=O)(O)OC[C@H]1O[C@@H](n2cnc3c(N)ncnc32)[C@H](O)[C@@H]1OP(=O)(O)O; assay: purified protein; type: biochemical, Comamonas testosteroni; conditions: 100 mM sodium Hepes pH 7.5, 25 °C
[5] = substrate: C[C@H](/C=C/C(=O)SCCNC(=O)CCNC(=O)[C@H](O)C(C)(C)COP(=O)(O)OP(=O)(O)OC[C@H]1O[C@@H](n2cnc3c(N)ncnc32)[C@H](O)[C@@H]1OP(=O)(O)O)[C@H]1CC[C@H]2[C@@H]3[C@H](O)C[C@@H]4C[C@H](O)CC[C@]4(C)[C@H]3C[C@H](O)[C@]12C; assay: purified protein; type: biochemical, Comamonas testosteroni; conditions: 100 mM sodium Hepes pH 7.5, 25 °C
[6] = substrate: C[C@H](/C=C/C(=O)SCCNC(=O)CCNC(=O)[C@H](O)C(C)(C)COP(=O)(O)OP(=O)(O)OC[C@H]1O[C@@H](n2cnc3c(N)ncnc32)[C@H](O)[C@@H]1OP(=O)(O)O)[C@H]1CC[C@H]2[C@@H]3CC=C4C[C@@H](O)CC[C@]4(C)[C@H]3CC[C@]12C; assay: purified protein; type: biochemical, Comamonas testosteroni; conditions: 100 mM sodium Hepes pH 7.5, 25 °C
[7] = molecular target: the molecule itself; assay: SEC; analytical size-exclusion chromatography, Superdex 200, 20 mM sodium Hepes pH 7.5, 0.15 M NaCl; native molecular weight from a standard curve
[8] = molecular target: T3, N-terminal His-tagged Sal (side chain aldolase / steroid aldolase) from Comamonas testosteroni KF-1 (Comamonas testosteroni KF-1, UniProt B7X4S8 1-404); assay: as above; conditions: both partners purified
T3 construct: gene amplified from genomic DNA; theoretical molecular weight of tagged Sal 46.08 kDa; Cloned into pMCSG7 by ligation independent cloning; source: E. coli BL21 LOBSTR (pMCSG7), coexpressed with untagged Shy or its truncated forms; in cell extract, then purified on Ni-NTA; not shown: His tag, N-terminal, kept
T3 sequence (looked up): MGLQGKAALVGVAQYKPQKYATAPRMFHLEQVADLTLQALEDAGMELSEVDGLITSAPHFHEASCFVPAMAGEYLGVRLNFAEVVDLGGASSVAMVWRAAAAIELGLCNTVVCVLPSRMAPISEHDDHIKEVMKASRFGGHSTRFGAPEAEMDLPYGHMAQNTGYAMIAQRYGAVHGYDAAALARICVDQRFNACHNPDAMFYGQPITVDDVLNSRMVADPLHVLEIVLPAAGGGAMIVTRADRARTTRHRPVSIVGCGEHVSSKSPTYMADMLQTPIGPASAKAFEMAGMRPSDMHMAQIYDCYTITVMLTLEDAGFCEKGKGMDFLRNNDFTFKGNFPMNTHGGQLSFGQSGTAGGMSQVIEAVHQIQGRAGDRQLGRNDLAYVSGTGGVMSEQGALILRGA

“ShyMaoC (Comamonas testosteroni KF-1; I309F)” was tested, and the Km [1] was 12.3 ± 1.05 µM, the kcat [1] was 67.2 ± 2.77 s⁻¹ and the kcat/Km [1] was 5.46e+06 ± 518000 M⁻¹ s⁻¹. It also gave a Km [2] of 65.0 ± 3.25 µM, a kcat [2] of 0.00555 ± 0.000129 s⁻¹ and a kcat/Km [2] of 85.4 ± 4.71 M⁻¹ s⁻¹.

B1: Shy-Sal (aldolase site in Sal) (Comamonas testosteroni KF-1) (protein)
chain: T3 sequence (looked up)
notes: same complex as P1: N-terminally His-tagged Sal with untagged full-length Shy, from E. coli BL21 LOBSTR; 160 kDa heterotetramer; with Side chain hydratase Shy, bifunctional OB-fold (DUF35) / MaoC family dehydratase domain-containing protein
With B1 the Km [3] was 8.12 ± 0.477 µM, the kcat [3] was 37.6 ± 0.8 s⁻¹ and the kcat/Km [3] was 4.63e+06 ± 289000 M⁻¹ s⁻¹.

B2: ShyMaoC (Comamonas testosteroni KF-1) (protein)
chain: ESEVAVVEQSVAAKRRISVKDIEAMKSLVSEEYSPWSNEFTVSQEVIDEFARLSGDDYWIHTDPVQAREKSPFGTTIAHGALVQVLASQLRIPLDYEVVDFNNMVNYGSDRLRFPTPVPSGCKIRARARIKAVEQVRSGVQATMELNIHVVGQDRPAVINDLVILYM
notes: C-terminal MaoC domain only (DUF35 removed), His-tagged (pET28a NdeI/HindIII), from E. coli BL21 LOBSTR; homodimer
B2 showed a Km [4] of 63.6 ± 3.62 µM, a kcat [4] of 0.00412 ± 0.00011 s⁻¹ and a kcat/Km [4] of 64.8 ± 4.07 M⁻¹ s⁻¹. The Km [5] was 6.14 ± 0.524 µM, the kcat [5] was 211 ± 6.71 s⁻¹ and the kcat/Km [5] was 3.44e+07 ± 3.13e+06 M⁻¹ s⁻¹. It also gave a Km [6] of 6.71 ± 0.588 µM, a kcat [6] of 62.9 ± 2.32 s⁻¹ and a kcat/Km [6] of 9.37e+06 ± 890000 M⁻¹ s⁻¹.

B3: His-tagged Shy_(MaoC), MaoC domain of Shy (domain or fragment, Comamonas testosteroni KF-1, UniProt B7X4S7 148-312, looked up)
chain: EVAVVEQSVAAKRRISVKDIEAMKSLVSEEYSPWSNEFTVSQEVIDEFARLSGDDYWIHTDPVQAREKSPFGTTIAHGALVQVLASQLRIPLDYEVVDFNNMVNYGSDRLRFPTPVPSGCKIRARARIKAVEQVRSGVQATMELNIHVVGQDRPAVINDLVILYM
notes: theoretical molecular weight of the tagged construct 20.5 kDa; Inserted into pET28a between NdeI and HindIII; source: E. coli BL21 LOBSTR (pET28a), purified (Ni-NTA)
B3 was tested, and the “stoichiometry N” value [7] was 2.

B4: Untagged Shy (side chain hydratase) from Comamonas testosteroni KF-1 (enzyme, UniProt B7X4S7 1-312, looked up)
chain: MAWNKPLPHPTEISAPYWEGLKAHEVRIQQCDRGHSLFFPRTHCPTCGSRSLKWSKVSGEGTLYSFTVARIPTMPEFTDEMPQALAVIELREGVRINTTMVGVAPEALKVGMEVRPVFDERPGEVTLLRFTAHAGSHPSVIKADAESEVAVVEQSVAAKRRISVKDIEAMKSLVSEEYSPWSNEFTVSQEVIDEFARLSGDDYWIHTDPVQAREKSPFGTTIAHGALVQVLASQLRIPLDYEVVDFNNMVNYGSDRLRFPTPVPSGCKIRARARIKAVEQVRSGVQATMELNIHVVGQDRPAVINDLVILYM
notes: N-terminal DUF35 domain and C-terminal MaoC domain; theoretical molecular weight 34.81 kDa; called 'the full protein' in the discussion; source: E. coli BL21 LOBSTR (pBTLactac, tagless), coexpressed with His-tagged Sal; in cell extract, then copurified on Ni-NTA
In the case of B4, the Km [5] is reported as 6.19 ± 0.446 µM, the kcat [5] is reported as 163 ± 1.5 s⁻¹ and the kcat/Km [5] is reported as 2.64e+07 ± 1.91e+06 M⁻¹ s⁻¹. For the same molecule, the “stoichiometry N” value [8] was 1 Shy per Sal (2:2 complex).
